± gives the uncertainty stated by the source.
Test: amyloid nucleation score (Sup35N fusion, yeast selection) (log enrichment); library NNK2; higher = more nucleation; inactive = no reads after selection
How it was run: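 In psi-negative yeast, Sup35N fusions carrying peptides of 20 random codons were induced with 100 μM copper sulfate for 24 hours. The cells then grew 7 days at 30°C on medium lacking adenine and uracil, and plasmid inserts from input and output were Illumina-sequenced, excluding sequences with under 100 input reads. Nucleation score is the DiMSum log enrichment of output over input reads, centred on the mode score of non-aggregating sequences.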

## NCIRSNDRMMFPLCVTLSCS
  amyloid nucleation score: 0.335 ± 0.39

## IMLATAAYFVLLGIFPGAWF
  amyloid nucleation score: inactive

## TCKMIAISRRGIDPGKAMHS
  amyloid nucleation score: -1.16 ± 0.49

## LSMDRESFINERWSSQRVMV
  amyloid nucleation score: -0.02 ± 0.5

## DVRFVTEFKSYRSCCKQSMF
  amyloid nucleation score: 2.42 ± 0.054

## QNYRNSGVKLHTRRIISCNV
  amyloid nucleation score: -0.526 ± 0.36

## VICNLDCLEVEGGILDQ
  amyloid nucleation score: -1.04 ± 1.1

## GKCTGRPPMNHSSLL
  amyloid nucleation score: 0.832 ± 0.39

## NMRTNLWNIIAFLSSRSIAQ
  amyloid nucleation score: 0.857 ± 0.35

## FSYQSHY
  amyloid nucleation score: 0.466 ± 0.23

## VSKNYDHCELRHMECAYWYT
  amyloid nucleation score: 0.211 ± 0.19

## QNHVRYQGRLPGSCLGCKYR
  amyloid nucleation score: -0.488 ± 1

## QFSYLYLVMASRSLTAVIIV
  amyloid nucleation score: -0.887 ± 0.3

## CMPMISRVLGCDNSYYMSSA
  amyloid nucleation score: 0.029 ± 0.4

## KTKLIRVFSTCRT
  amyloid nucleation score: inactive

## RLIRFSIMEV
  amyloid nucleation score: -0.291 ± 0.54

## KGCEIFLVLAMCDKCSGFL
  amyloid nucleation score: 3.69 ± 0.12

## IVVNNCSEVLEVGSDDAVKR
  amyloid nucleation score: inactive

## SNCYLKRSYGFRDIITKIRY
  amyloid nucleation score: 1.24 ± 0.14

## TLVHNFGCSLGHLKFRQNMW
  amyloid nucleation score: -0.33 ± 1.1

## NCSKENKPGVIETISVGMGP
  amyloid nucleation score: 1.01 ± 0.48

## VGTILAPGGLWGMEVCWQTK
  amyloid nucleation score: 3.06 ± 0.12

## MHGREFWRCTSWSSLVNLGV
  amyloid nucleation score: 0.998 ± 0.19

## PCLKGVITLLLKGPGPHRVN
  amyloid nucleation score: 0.091 ± 0.42

## GIMLLSCFDCGGLSTLGHLA
  amyloid nucleation score: 7.56 ± 0.082

## AITGGFSAFIRYYGVMYDVG
  amyloid nucleation score: -0.736 ± 0.45

## FCVCARWCIVVSGLVCDLRY
  amyloid nucleation score: -0.323 ± 0.63

## SYRRKYSCRLESINTCAVLC
  amyloid nucleation score: -0.302 ± 0.47

## FKKTLTGCYGGGRGAMNNGK
  amyloid nucleation score: inactive

## RNYEGPPGDLGQQVLSHSMP
  amyloid nucleation score: -0.853 ± 0.63

## KSISVSLLVEGAVVSLSAYI
  amyloid nucleation score: 4.21 ± 0.11

## IMCQVSR
  amyloid nucleation score: -0.171 ± 1

## LLWPVA
  amyloid nucleation score: 0.386 ± 0.46

## TMSGCSLLCWEYNASQDLSN
  amyloid nucleation score: -0.071 ± 0.62

## KLWETRACFVTCR
  amyloid nucleation score: 0.362 ± 0.4

## FSLCANCNIMMPRSFLSYT
  amyloid nucleation score: 5.24 ± 0.078

## IYALFLICLLHISVGLLMYR
  amyloid nucleation score: -0.179 ± 0.63

## WSGLFVKKNVVFRVRNGVT
  amyloid nucleation score: -0.089 ± 1.1

## DCSCFYFF
  amyloid nucleation score: 2.96 ± 0.08

## PPNVLDCFNVL
  amyloid nucleation score: -0.501 ± 0.64

## YSMWGYCISPNKHVYFTHGR
  amyloid nucleation score: -0.421 ± 0.78

## RDVFTFYNKGEFERCQTLVY
  amyloid nucleation score: 0.092 ± 1.1

## MGSNAWVLNNACHGLFTSAS
  amyloid nucleation score: 0.386 ± 0.35

## MSLTIWGICRCKQ
  amyloid nucleation score: -0.097 ± 0.76

## NRCLGIT
  amyloid nucleation score: 0.231 ± 0.48

## FKAILGG
  amyloid nucleation score: inactive

## IILTVNRRMDLEGYFYFMFE
  amyloid nucleation score: -0.93 ± 1

## SSGVRPNNLVSFEFHCLELG
  amyloid nucleation score: -0.28 ± 0.54

## VPLCDVYWA
  amyloid nucleation score: -0.902 ± 0.61

## HRYSRCIHLVKWVWCVQMIA
  amyloid nucleation score: 1.29 ± 0.32

## RGGVVNCRFRAHFMWL
  amyloid nucleation score: 5.779 ± 0.041

## CQSRY
  amyloid nucleation score: -0.373 ± 1.1

## FGWLALTKR
  amyloid nucleation score: -1.16 ± 0.34

## MIVWWNYCGSAVPRKIL
  amyloid nucleation score: -0.586 ± 1.1

## MYWFGTVHQFRKFSENHRMF
  amyloid nucleation score: 0.721 ± 0.8

## RGYDLVGSIIFSMQKRLRKK
  amyloid nucleation score: -1.24 ± 1.1

## TNVLYMLWTFKVDERY
  amyloid nucleation score: 5.964 ± 0.049

## LTMQKWLF
  amyloid nucleation score: 0.28 ± 0.62

## VLEFFLKSSF
  amyloid nucleation score: 3.1 ± 0.14

## MRYEALMHPWSWRFR
  amyloid nucleation score: 1.06 ± 0.12

## RMSIWRFRMSLAQDGLGRFQ
  amyloid nucleation score: 5.564 ± 0.044

## PLGSMTNDTTDRNFEVSGRG
  amyloid nucleation score: -0.106 ± 0.31

## SVTGPILICVSLIASFRRSM
  amyloid nucleation score: 4.27 ± 0.061

## QYCARAR
  amyloid nucleation score: 1.87 ± 0.4

## FWRKVCVDDRTT
  amyloid nucleation score: -0.121 ± 0.43

## HVSNSFKSFCN
  amyloid nucleation score: 1.52 ± 0.2

## WYAHGLISVCFVCAGLESLG
  amyloid nucleation score: -0.251 ± 0.76

## SYDVLCILRS
  amyloid nucleation score: -0.547 ± 0.76

## NGTTWKYYSRMSVTCAGPSI
  amyloid nucleation score: -0.952 ± 0.39

## KRMSPWAVFGC
  amyloid nucleation score: 0.872 ± 0.47

## KLSIWGLRGVVGAWRCHTGY
  amyloid nucleation score: inactive

## RLLHYAFAFTARV
  amyloid nucleation score: 3.15 ± 0.068

## MRKLSKLLTWHPRHA
  amyloid nucleation score: -0.517 ± 0.54

## GTCLHCGEIRS
  amyloid nucleation score: -0.293 ± 0.29

## RWLTGMLDVVPYTFCEEV
  amyloid nucleation score: inactive

## VYAMVGVSLACGCVSWKGHV
  amyloid nucleation score: 4.75 ± 0.086

## GYVSRDSFVLYWPSRNDCLA
  amyloid nucleation score: 0.276 ± 0.22

## FIQVSHCYAKMPYTTVTPGA
  amyloid nucleation score: -0.191 ± 0.79

## RATPTSLSIAMFCLFGHALL
  amyloid nucleation score: 5.87 ± 0.079

## IDLTHECVRVWVDSKLLSPF
  amyloid nucleation score: -0.742 ± 1.1

## VLEGIYLLMKVCLIYPRSYD
  amyloid nucleation score: -1.8 ± 1.1

## LTSHLYIYGMW
  amyloid nucleation score: -0.766 ± 0.48

## KLGDWARRPCSSGPARTYGR
  amyloid nucleation score: 0.843 ± 0.19

## NSDRL
  amyloid nucleation score: -0.794 ± 0.45

## LMQVSA
  amyloid nucleation score: 0.829 ± 0.41

## RSWKLGVDGWPLMSEFP
  amyloid nucleation score: 1.64 ± 0.29

## SYRSVYYLVMGFPIGHH
  amyloid nucleation score: -1.67 ± 1
